{"source": "paper PMC11984392", "about": "(2025)", "binders": {"B1": {"name": "AJ201 (peptide)", "peptide": "{NOTA-PEG2′}-GR[Sar][Sar][Sar]GA[hArg]DC[Hyp]LVNPLCLHP[dD]W[hArg]C-NH2", "modifications": "linker 10-17-24 via TATA; not fully specified; also: hydroxyproline, place not given here"}}, "key": {"His-tagged human EphA2": {"target": "His-tagged human EphA2 (human, UniProt P29317 24-537)", "sequence (P29317 24-537)": "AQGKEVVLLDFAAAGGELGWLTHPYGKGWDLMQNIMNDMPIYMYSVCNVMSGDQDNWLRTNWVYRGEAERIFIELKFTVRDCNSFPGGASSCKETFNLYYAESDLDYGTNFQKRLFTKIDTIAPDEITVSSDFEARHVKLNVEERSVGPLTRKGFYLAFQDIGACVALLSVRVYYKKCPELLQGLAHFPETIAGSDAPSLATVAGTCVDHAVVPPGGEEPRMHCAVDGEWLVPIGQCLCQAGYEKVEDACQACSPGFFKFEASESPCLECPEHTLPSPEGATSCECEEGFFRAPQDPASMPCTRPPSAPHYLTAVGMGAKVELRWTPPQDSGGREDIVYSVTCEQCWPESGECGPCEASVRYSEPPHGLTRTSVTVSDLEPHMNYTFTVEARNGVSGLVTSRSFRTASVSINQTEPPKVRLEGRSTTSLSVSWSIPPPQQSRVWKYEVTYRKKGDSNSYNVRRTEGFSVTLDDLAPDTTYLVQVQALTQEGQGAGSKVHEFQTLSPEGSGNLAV", "assay": "SPR"}, "His-tagged mouse EphA2": {"target": "T1, His-tagged mouse EphA2 (mouse, UniProt Q03145 26-538)", "T1 chain": "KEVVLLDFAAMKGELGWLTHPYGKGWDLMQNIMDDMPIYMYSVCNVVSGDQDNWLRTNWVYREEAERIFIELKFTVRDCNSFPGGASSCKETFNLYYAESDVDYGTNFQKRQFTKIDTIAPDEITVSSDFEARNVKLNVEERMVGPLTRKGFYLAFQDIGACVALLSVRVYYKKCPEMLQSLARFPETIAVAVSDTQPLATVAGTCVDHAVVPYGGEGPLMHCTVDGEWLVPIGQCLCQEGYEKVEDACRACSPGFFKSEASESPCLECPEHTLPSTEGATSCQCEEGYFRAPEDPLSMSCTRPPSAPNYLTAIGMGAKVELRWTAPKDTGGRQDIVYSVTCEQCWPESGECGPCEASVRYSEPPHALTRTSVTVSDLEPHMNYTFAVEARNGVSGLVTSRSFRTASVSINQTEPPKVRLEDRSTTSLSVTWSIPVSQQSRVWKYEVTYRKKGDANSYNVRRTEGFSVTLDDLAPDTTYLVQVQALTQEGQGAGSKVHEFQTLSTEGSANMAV", "assay": "SPR"}}, "note": "*1 amine or outer side, *2 acyl side, *3 side chain or, on linkers, in order; H or OH if unused. Bridges are numbered along the chain shown (N, C = ends). Primed or numbered codes have the meaning given here. [ ]: non-standard residue; d: D form. The star is where a group is joined. TATA = O=C(CC[*:1])N1CN(C(=O)CC[*:2])CN(C(=O)CC[*:3])C1; NOTA = O=C(O)CN1CCN(CC(=O)O)CCN(CC(=O)*)CC1; Hyp = O=C(O)[C@@H]1C[C@@H](O)CN1; hArg = N=C(N)NCCCC[C@H](N)C(=O)O; PEG2′ = not defined here; Sar = CNCC(=O)O"}
{"binder": "B1", "values": [{"measurement": "koff", "setting": "His-tagged human EphA2", "value": 0.00133, "unit": "s⁻¹"}, {"measurement": "koff", "setting": "His-tagged mouse EphA2", "value": 0.00301, "unit": "s⁻¹"}]}
